Laboratory results published in paper PMC3897428 (PLoS ONE, 2014).

What was measured:
Settings in all cases: one partner purified
[1] = target: T1, African green monkey uPAR on COS-1 cells (Chlorocebus aethiops (COS-1 cells), UniProt Q9GK79); assay: flow cytometry on cells; cells incubated with ATN-658 (10 µg/mL) 1 h at 4°C in FACS buffer, Alexa Fluor 488 secondary antibody
T1 construct: also called AGM uPAR; source: endogenous, on COS-1 cells

[2] = target: T2, chimpanzee uPAR in tissues (chimpanzee (endogenous in tissues), UniProt Q9GK80); assay: immunostaining of cells or tissue; immunohistochemistry of chimpanzee tissues with ATN-658; no figure or methods given
T2 construct: source: endogenous, chimpanzee tissues

[3] = target: T3, human uPAR on the surface of cells (PC-3, HeLa) (Homo sapiens, UniProt Q03405); assay: radioligand binding; iodinated ATN-658 on the surface of HeLa cells
T3 construct: source: endogenous, on PC-3 and HeLa cells

[4] = target: T4, African green monkey (AGM) suPAR (Chlorocebus aethiops (COS-1 cells), UniProt Q9GK79); assay: ELISA; capture ELISA: suPAR clones from culture supernatant captured by anti-V5 antibody on the plate, biotin-ATN-658, streptavidin-HRP, OPD; saturation binding
T4 construct: soluble uPAR (suPAR) of African green monkey (Cercopithecus aethiops), cloned from COS-1 cells by PCR; numbers count on: the mature protein; Parent of the nine point mutants; also called monkey suPAR; source: Drosophila S2 cells, expressed as described for human suPAR

[5] = target: T5, mouse uPAR on B16 melanoma cells (Mus musculus (B16 melanoma), UniProt P35456); assay: whole cell saturation binding assay; adherent cells on gelatin coated 12-well plates, varying concentrations of biotin-labeled ATN-658 in HBSS/0.1% BSA, 1 h at room temperature, HRP-streptavidin and OPD
T5 construct: source: endogenous, on B16 cells

[6] = target: T1, African green monkey uPAR on COS-1 cells; assay: as above

T1 sequence (Q9GK79 whole entry, looked up): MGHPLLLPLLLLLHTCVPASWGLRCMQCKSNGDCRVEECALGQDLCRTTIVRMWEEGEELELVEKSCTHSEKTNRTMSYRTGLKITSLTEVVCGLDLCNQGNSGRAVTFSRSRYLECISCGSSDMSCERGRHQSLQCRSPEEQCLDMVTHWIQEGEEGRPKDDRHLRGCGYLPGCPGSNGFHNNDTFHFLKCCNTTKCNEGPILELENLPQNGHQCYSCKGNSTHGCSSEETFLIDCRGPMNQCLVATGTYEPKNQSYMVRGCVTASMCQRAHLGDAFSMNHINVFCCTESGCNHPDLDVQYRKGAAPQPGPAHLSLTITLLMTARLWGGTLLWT
T4 sequence (Q9GK79 whole entry, looked up): as above
T3 sequence (Q03405 23-305): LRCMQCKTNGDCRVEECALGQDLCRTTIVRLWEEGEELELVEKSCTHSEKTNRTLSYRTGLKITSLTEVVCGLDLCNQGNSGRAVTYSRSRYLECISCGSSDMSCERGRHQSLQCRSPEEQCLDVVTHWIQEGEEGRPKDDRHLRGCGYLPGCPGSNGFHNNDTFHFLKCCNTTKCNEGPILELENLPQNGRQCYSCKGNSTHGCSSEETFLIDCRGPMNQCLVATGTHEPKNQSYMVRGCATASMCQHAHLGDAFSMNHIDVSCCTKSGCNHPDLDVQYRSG
T2 sequence (Q9GK80 23-305): as the sequence (Q03405 23-305) above, with L31M, D102N, S117N counted along it
T5 sequence (P35456 24-298): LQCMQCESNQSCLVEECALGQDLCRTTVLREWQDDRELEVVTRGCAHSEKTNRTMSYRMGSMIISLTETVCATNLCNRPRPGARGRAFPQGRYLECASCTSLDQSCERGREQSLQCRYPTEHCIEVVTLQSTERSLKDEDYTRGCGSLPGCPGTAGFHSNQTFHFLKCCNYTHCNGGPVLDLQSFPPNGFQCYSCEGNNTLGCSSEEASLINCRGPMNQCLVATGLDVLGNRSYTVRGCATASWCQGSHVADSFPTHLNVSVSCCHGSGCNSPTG

B1: ATN-658 monoclonal antibody (antibody, V domains shown)
VH: EVQLQQSGPELVKTGASVKISCKASGYSFTSYYMHWVKQSHGKSLEWIGEINPYNGGASYNQKIKGRATFTVDTSSRTAYMQFNSLTSEDSAVYYCARSIYGHSVLDYWGQGTSVSVSS
VL: not shown
notes: Fab part as the heavy chain of m4, followed by the rest of a mouse IgG1 heavy chain; as the light chain of m4 (kappa); Mouse IgG1 kappa; source: mouse hybridoma tissue culture supernatant, purified (protein-A Sepharose)
B1: no binding (tested: 10 µg/mL) [1]; binds [2].

B2: iodinated ATN-658 (antibody, V domains shown)
VH: EVQLQQSGPELVKTGASVKISCKASGYSFTSYYMHWVKQSHGKSLEWIGEINPYNGGASYNQKIKGRATFTVDTSSRTAYMQFNSLTSEDSAVYYCARSIYGHSVLDYWGQGTSVSVSS
VL: not shown
notes: as the heavy chain of m1; as the light chain of m1; Mouse IgG1 kappa; source: mouse hybridoma tissue culture supernatant, purified (protein-A Sepharose), iodinated
For B2, the Kd [3] was ~5 nM.

B3: Biotin-ATN-658 (antibody, V domains shown)
VH: EVQLQQSGPELVKTGASVKISCKASGYSFTSYYMHWVKQSHGKSLEWIGEINPYNGGASYNQKIKGRATFTVDTSSRTAYMQFNSLTSEDSAVYYCARSIYGHSVLDYWGQGTSVSVSS
VL: not shown
notes: as the heavy chain of m1; as the light chain of m1; Mouse IgG1 kappa
B3: no binding (tested: 1 µg/mL biotin-ATN-658 (methods)) [4]; no binding [5]; no binding [6].
